According to publication PMC3618968 (The Journal of neuroscience : the official journal of the …, 2013):

Target: mouse PCDH15 EC1+2 (wild type) (mouse, UniProt Q99PJ1 27-259)
Assay: ITC

- binding result: binds
B1: mouse CDH23 EC1+2 (domain or fragment)
chain: QVNRLPFFTNHFFDTYLLISEDTPVGSSVTQLLARDMDNDPLVFGVSGEEASRFFAVEPDTGVVWLRQPLDRETKSEFTVEFSVSDHQGVITRKVNIQVGDVNDNAPTFHNQPYSVRIPENTPVGTPIFIVNATDPDLGAGGSVLYSFQPPSPFFAIDSARGIVTVIQELDYEVTQAYQLTVNATDQDKTRPLSTLANLAIIITD
